From the RNAGym collection of RNA variant scans (doi:10.1073/pnas.2313332121)
This sample holds only a part of the variants without activity.

B1: TPR 5TU (parent)
chain: GGAUCUUCUCGAUCUAACAAAAAAGACAAAUCUGCCACAAAGCUUGAGAGCAUCUUCGGAUGCAGAGGCGGCAGCCUUCGGUGGCGCGAUAGCGCCAACGUUCUCAACUAUGACACGCAAAACGCGUGCUCCGUUGAAUGGAGUUUAUCAUG

Variants of: B1
Test: polymerase ribozyme fitness, log enrichment relative to wild type (log ratio); higher = more active; in vitro selection for triplet polymerase activity
Summary of the method: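 Genotype fitness is the logarithm of its enrichment divided by wild-type enrichment, using inverse-variance-weighted averages of replicates. That logarithm is base 2. Enrichment was measured by Illumina sequencing of input and output libraries from one triplicate in vitro selection round, with frozen incubation at −7 °C, on PCR-built, transcribed mutant libraries of each subunit of a heterodimeric triplet polymerase ribozyme, retaining genotypes with ≥10 input reads and ≥1 read per output.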

Point of comparison: GGAUCUUCUCGAUCUAACAAAAAAGACAAAUCUGCCACAAAGCUUGAGAGCAUCUUCGGAUGCAGAGGCGGCAGCCUUCGGUGGCUCGAUAGCGCCAACGUUCUCAACUAUGACACGUAAAACGCGUGCUCCGUUGAAUGGAGUUUAUCAUG, “polymerase ribozyme fitness (log ratio)” value -1.69. Against it:
- GGAUCUUCUCGAUCUAACAAAAAAGACAAAUCUGCCACAAAGCUUGAGAGCAUCUUCGGAUGCAGAGGCGGCAGCCUUCGGUGGCUCGAUAGCGCAAACGUUCUCAACUAUGACACGCAAAACGCGUGCUCCGUUGAAUGGAGUUUAUCAUG — lower, -2.89
- GGAUCUUCUCGAUCUAACAAAAAAGACAAAUCUGCCACAAAGCUUGAGAGCAUCUUCGGAUGCAGAGGCGGCAGCCUUCGGUGGCUCGAUAGCGCCAACGUUCUCAACUAUGACACGCAAAACGUGUGCUCCGUUGAAUGGAGUUUAUCAUG — lower, -2.02
- GGAUCUUCUCGAUCUAACAAAAAAGACAAAUCUGCCACAAAGCUUGAGAGCAUCUUCGGAUGCAGAGGCGGCAGCCUUCGGUGGCCCGAUAGCGCCAACGUUCACAACUAUGACACGCAAAACGCGUGCUCCGUUGAAUGGAGUUUAUCAUG — lower, -2.46
- GGAUCUUCUCGAUCUAACAAAAAAGACAAAUCUGCCACAAAGCUUGAGAGCAUCUUCGGAUGCAGAGGCGGCAGCCUUCGGUGGCUCGAUAGCGCCAACGUUCUCAAUUAUGACACGCAAAACGCGUGCUCCGUUGAAUGGAGUUUAUCAUG — lower, -4.14
- GGAUCUUCUCGAUCUAACAAAAAAGACAAAUCUGCCACAAAGCUUGAGAGCAUCUUCGGAUGCAGAGGCGGCAGCCUUCGGUGGCUCGAUAGCGCCAACGUUCUCAACUAUGACACGCAGAACGCGUGAUCCGUUGAAUGGAGUGUAUCAUG — lower, -4.13
- GGAUCUUCUCGAUCUAACAAAAAAGACAAAUCUGCCACAAAGCUUGAGAGCAUCUUCGGAUGCAGAGGCGGCAGCCUUCGGUGGCCCGAUAGCGCCAACGUUCUCAACGAUGACACGGAAAACGCGUGCUCCGUUGAAUGGAGUUUAUCAUG — lower, -3.5
- GGAUCUUCUCGAUCUAACAAAAAAGACAAAUCUGCCACAAAGCUUGAGAGCAUCUUCGGAUGCAGAGGCGGCAGCCUUCGGUGGCCCGAUAGCGCCACCGUUCUCAACUAUGACACGCAAAACGCGUGCUCCGUUGAAUGGAGUUUAUCAUG — higher, -1
- GGAUCUUCUCGAUCUAACAAAAAAGACAAAUCUGCCACAAAGCUUGAGAGCAUCUUCGGAUGCAGAGGCGGCAGCCUUCGGUGGCUCGAUAGCGCCAACGUUCUAAACUAUGACACGCAAAACGCGUGCUCCGUUGAAUGGAGUUUAUCAUG — lower, -2.68
- GGAUCUUCUCGAUCUAACAAAAAAGACAAAUCUGCCACAAAGCUUGAGAGCAUCUUCGGAUGCAGAGGCGGCAGCCUUCGGUGGCUCGCUAGCGCCAACGUUCUCAACUAUGACACGCCAAACGCGUGCUCCGUUGAAUGGAGUUUAUCAUG — lower, -3.83
- GGAUCUUCUCGAUCUAACAAAAAAGACAAAUCUGCCACAAAGCUUGAGAGCAUCUUCGGAUGCAGAGGCGGCAGCCUUCGGUGGCUCGAUAGCGCCAACGUUCUCAACUAUGACACGCGAAACGCGUGCUCCGUUGAAUGGAGUUUAUCAUG — within 0.2 log units, -1.54
- GGAUCUUCUCGAUCUAACAAAAAAGACAAAUCUGCCACAAAGCUUGAGAGCAUCUUCGGAUGCAGAGGCGGCAGCCUUCGGUGGCCCGAUAGCGCCAACGUUCUUAACUAUGACACGCAAAACGCGUGCUCCGUUGAAUGGAGUUUAUCAUG — within 0.2 log units, -1.5
- GGAUCUUCUCGAUCUAACAAAAAAGACAAAUCUGCCACAAAGCUUGAGAGCAUCUUCGGAUGCAGAGGCGGCAGCCUUCGGUGGCUCGGUAGCGCCAACGUUCUCAACUAUGACACGCAAAACGCGUGCUCCGUUGAAUGGAGUAUAUCAUG — lower, -3.28
- GGAUCUUCUCGAUCUAACAAAAAAGACAAAUCUGCCACAAAGCUUGAGAGCAUCUUCGGAUGCAGAGGCGGCAGCCUUCGGUGGCUAGAUAGCGACAACGUUCACAACUAUGACACGCAAAACGCGUGCUCCGUUGAAUGGAGUUUAUCAUG — lower, ≤ -4.2
- GGAUCUUCUCGAUCUAACAAAAAAGACAAAUCUGCCACAAAGCUUGAGAGCAUCUUCGGAUGCAGAGGCGGCAGCCUUCGGUGGCCCGAUAGCGCCAACGAUCGCACCUAUCACACGCAAAACGCGUGCUCCGUUGAAUGGAGUUUAUCAUG — lower, ≤ -4.2
- GGAUCUUCUCGAUCUAACAAAAAAGACAAAUCUGCCACAAAGCUUGAGAGCAUCUUCGGAUGCAGAGGCGGCAGCCUUCGGUGGCUCAAUAGCGCCAACGUUCUCAACUAUGACACGCAAAACGCGUGCUCCGUUGAAUGGAGUUUAUCCUG — lower, ≤ -4.2
- GGAUCUUCUCGAUCUAACAAAAAAGACAAAUCUGCCACAAAGCUUGAGAGCAUCUUCGGAUGCAGAGGCGGCAGCCUUCGGUGGCUCGAUAGCGCCAACGUUCUCAACUAUGACACGCAAAACGCGUGCUCCGUUGAAUGGAGUUUAUCAUG — within 0.2 log units, -1.62
- GGAUCUUCUCGAUCUAACAAAAAAGACAAAUCUGCCACAAAGCUUGAGAGCAUCUUCGGAUGCAGAGGCGGCAGCCUUCGGUGGCUCGAUAGCGCCAUCGUUCUCAACUAGGAUACGCAAAACGCGUGCUCCGUUGAAUGGAGUUUAUCAUG — lower, -3.81
- GGAUCUUCUCGAUCUAACAAAAAAGACAAAUCUGCCACAAAGCUUGAGAGCAUCUUCGGAUGCAGAGGCGGCAGCCUUCGGUGGCCCGAUAGCGCUAACGUUCUCAACUAUGACACGCAAAACGCGUGCUCCGUUGAAUGGAGUUUAUCAUG — lower, -2.67
- GGAUCUUCUCGAUCUAACAAAAAAGACAAAUCUGCCACAAAGCUUGAGAGCAUCUUCGGAUGCAGAGGCGGCAGCCUUCGGUGGCCCGAUAGCGCCAACGUUCUCAACUAUGACAUGCAAAACGCGUGCUCCGUUGAAUGGAGUUUAUCAUG — lower, -2.44
- GGAUCUUCUCGAUCUAACAAAAAAGACAAAUCUGCCACAAAGCUUGAGAGCAUCUUCGGAUGCAGAGGCGGCAGCCUUCGGUGGCCCGAUAGCGCCAACGUUCUCAACUAUGACACGCAAAACACGUGCUCCGUUGAAUGGAGAUUAUCAUG — lower, -2.44
- GGAUCUUCUCGAUCUAACAAAAAAGACAAAUCUGCCACAAAGCUUGAGAGCAUCUUCGGAUGCAGAGGCGGCAGCCUUCGGUGGCCCGAUAGCGCCAACGUUCUCAACUAUGACACGCAAAACGCGUGCUUCGUUGAAUGGAGUUUAUCAUG — lower, -2.55
- GGAUCUUCUCGAUCUAACAAAAAAGACAAAUCUGCCACAAAGCUUGAGAGCAUCUUCGGAUGCAGAGGCGGCAGCCUUCGGUGGCUCGAUAGCGCCAACGUUCUCAACUAUGACACGCAAAACGCGUGCUCCGUUGAAUGGGGUUUAUCAUG — lower, -2.35
- GGAUCUUCUCGAUCUAACAAAAAAGACAAAUCUGCCACAAAGCUUGAGAGCAUCUUCGGAUGCAGAGGCGGCAGCCUUCGGUGGCUCGAUAGGGCCAACGUUCUCGACUAUGACACGCAAAACGCGUGCUCUGUUGAAUGGAGUUUAACAUG — lower, -3.05
- GGAUCUUCUCGAUCUAACAAAAAAGACAAAUCUGCCACAAAGCUUGAGAGCAUCUUCGGAUGCAGAGGCGGCAGCCUUCGGUGGCUCGAUAGGGCCAACGUUCUCAACUAUGACACGCAAAACGCGUGCUCCGUUGAAUGGAGUUUAUCAUG — higher, -1.28
- GGAUCUUCUCGAUCUAACAAAAAAGACAAAUCUGCCACAAAGCUUGAGAGCAUCUUCGGAUGCAGAGGCGGCAGCCUUCGGUGGCUCGAUAGCGCCAACGUUCUCAACUAUGACACGCAAAACGCGUGCUCCGUUGGAUGGAGUUUAUCAUG — lower, -3.03
- GGAUCUUCUCGAUCUAACAAAAAAGACAAAUCUGCCACAAAGCUUGAGAGCAUCUUCGGAUGCAGAGGCGGCAGCCUUCGGUGGCUCGAUAGCGCCAACGUUCUCAACUAUGACACGCAAAACGCGUGCUCCGUUGAAUGGAGUUUAUAAUG — lower, ≤ -4.2
- GGAUCUUCUCGAUCUAACAAAAAAGACAAAUCUGCCACAAAGCUUGAGAGCAUCUUCGGAUGCAGAGGCGGCAGCCUUCGGUGGCCCGAUAGCGCCAACGUUCUCAACUAUGAUACGCAAAACGCGUGCUCCGUUGAAUGGAGUUUAUCAUG — lower, -3.9
- GGAUCUUCUCGAUCUAACAAAAAAGACAAAUCUGCCACAAAGCUUGAGAGCAUCUUCGGAUGCAGAGGCGGCAGCCUUCGGUGGCUCCAUAGCGCCAACGUUCUCAACUAUGACACGCCAAACGCGAGCUCCGUUGAAUGGAGGUUAUCAUG — lower, ≤ -4.2
- GGAUCUUCUCGAUCUAACAAAAAAGACAAAUCUGCCACAAAGCUUGAGAGCAUCUUCGGAUGCAGAGGCGGCAGCCUUCGGUGGCCCGAUAGCGCCAACGGUCUCAACUAUGACACGCAAAACUCGUGCUCCGUUGAAUGGAGUUUAUCAUA — lower, -4.15
- GGAUCUUCUCGAUCUAACAAAAAAGACAAAUCUGCCACAAAGCUUGAGAGCAUCUUCGGAUGCAGAGGCGGCAGCCUUCGGUGGCCCGAUAGCGCCAAGGUUCUCAACGAUGACACGCAAAACGCGUGAUCCGUUGAAUGGAGUUUAGCAUG — lower, ≤ -4.2
- GGAUCUUCUCGAUCUAACAAAAAAGACAAAUCUGCCACAAAGCUUGAGAGCAUCUUCGGAUGCAGAGGCGGCAGCCUUCGGUGGCUCGUUAGCGCCAACGUUCUCAACUAUGUCACGCAAAACGCGUGCUGCGUUGAAUGGAGUUUAUCAUG — lower, ≤ -4.2
- GGAUCUUCUCGAUCUAACAAAAAAGACAAAUCUGCCACAAAGCUUGAGAGCAUCUUCGGAUGCAGAGGCGGCAGCCUUCGGUGGCCCGAUAACGCCAACGUUCUCAACUAUGACACGCAAAACGCGUGCUCCGUUGAAUGGAGUUUAUCAUG — lower, ≤ -4.2
- GGAUCUUCUCGAUCUAACAAAAAAGACAAAUCUGCCACAAAGCUUGAGAGCAUCUUCGGAUGCAGAGGCGGCAGCCUUCGGUGGCUCGAUAGAACCAACGUUCUCAACUAUGACACGCAAAACGCGUGCUCCGUUGAAUGGAGUUUAUCAUG — higher, -0.505
- GGAUCUUCUCGAUCUAACAAAAAAGACAAAUCUGCCACAAAGCUUGAGAGCAUCUUCGGAUGCAGAGGCGGCAGCCUUCGGUGGCCCGAUAGCGCCAACGUUCUCAACUAUGACACGCAAAACGCGUGCUCCGUUGAAUGGAGUCUAUCAUG — lower, -3.66
- GGAUCUUCUCGAUCUAACAAAAAAGACAAAUCUGCCACAAAGCUUGAGAGCAUCUUCGGAUGCAGAGGCGGCAGCCUUCGGUGGCUCGAUAGCGCCAACGUUCUCAGCUAUGACACGCAAAACGCGUGCUCCGUUGAAUGGACUUUAUCAAG — lower, ≤ -4.2
- GGAUCUUCUCGAUCUAACAAAAAAGACAAAUCUGCCACAAAGCUUGAGAGCAUCUUCGGAUGCAGAGGCGGCAGCCUUCGGUGGCCCGAUAGCGCCAACGGUCUCAACUAUGACACGCAAAACGCGUGCUCCGUUGAAUGGAGUUUAUCAUG — lower, -2.8
- GGAUCUUCUCGAUCUAACAAAAAAGACAAAUCUGCCACAAAGCUUGAGAGCAUCUUCGGAUGCAGAGGCGGCAGCCUUCGGUGGCCCGAUAGCGCCAACGUUCUCAACUAUGACACGCAAAACGCGUGCUCCGUUAAAUGGAGUUUAUCAUG — higher, -1.38
